The values that follow come from patent US20260226161A1.

In general, Kd refers to the free concentration of one partner at which half of the binding sites on the other are occupied at equilibrium, for simple one-to-one binding. A higher Kd goes with lower affinity. One may read the koff as a measure of how fast the partners let go of each other. Usually kon stands for a measure of how fast the partners come together. Read a low kon as slower complex formation. Broadly, the EC50 (read off the curve) is the concentration that produces a half-maximal response. The low end stands for an effect from little substance, the high end for a need for much substance.

Experiment [1] addresses Human NKG2A & CD94 with mouse IgG2a Fc tag (AcroBiosystems) (human) (UniProt P26715). Kind of experiment: SPR (Carterra), antibody on chip, soluble antigen.
The target in experiment [2] is cynomolgus NKG2A/CD94 (soluble antigen of the equilibrium assay) (cynomolgus) (UniProt Q68VD2). Kind of experiment: SPR equilibrium response, Langmuir isotherm; antibody on chip, soluble antigen.
In experiment [3] the target is NKG2A expressed on KHYG-1 cells (endogenous) (human) (UniProt P26715).
The target is the same in experiment [4]. Kind of experiment: flow cytometry on KHYG-1 cells (endogenous NKG2A), MFI against Log [Ab] M. On the technique in general: A flow cytometer gives signals particle by particle.
Experiment [5] shares this target. Kind of experiment: competition by flow cytometry on KHYG-1 cells: antibody varied, binding of HLA-E tetramer to NKG2A read as MFI.

Chain of NKG2A expressed on KHYG-1 cells (endogenous) (human) (P26715 whole entry, chain 1 of 2): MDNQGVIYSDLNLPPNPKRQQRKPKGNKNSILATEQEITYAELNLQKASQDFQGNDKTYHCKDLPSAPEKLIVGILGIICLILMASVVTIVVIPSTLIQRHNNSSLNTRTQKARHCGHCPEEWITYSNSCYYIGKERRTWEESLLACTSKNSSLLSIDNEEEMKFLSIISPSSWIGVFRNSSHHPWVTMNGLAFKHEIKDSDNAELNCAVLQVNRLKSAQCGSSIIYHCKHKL
Chain of NKG2A expressed on KHYG-1 cells (endogenous) (human) (Q13241 whole entry, chain 2 of 2, further chain): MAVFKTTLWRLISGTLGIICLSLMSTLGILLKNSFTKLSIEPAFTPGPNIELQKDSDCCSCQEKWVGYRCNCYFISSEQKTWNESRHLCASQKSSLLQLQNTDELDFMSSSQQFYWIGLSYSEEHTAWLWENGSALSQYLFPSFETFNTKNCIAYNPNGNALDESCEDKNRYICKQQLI
Chain of Human NKG2A & CD94 with mouse IgG2a Fc tag (AcroBiosystems) (human) (P26715 94-233 limits assumed, chain 1 of 2): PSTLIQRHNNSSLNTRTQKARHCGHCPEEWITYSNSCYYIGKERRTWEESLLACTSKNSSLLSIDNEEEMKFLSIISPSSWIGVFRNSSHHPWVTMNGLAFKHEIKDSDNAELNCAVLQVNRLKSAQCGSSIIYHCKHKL
Chain of Human NKG2A & CD94 with mouse IgG2a Fc tag (AcroBiosystems) (human) (Q13241 32-179 limits assumed, chain 2 of 2, further chain): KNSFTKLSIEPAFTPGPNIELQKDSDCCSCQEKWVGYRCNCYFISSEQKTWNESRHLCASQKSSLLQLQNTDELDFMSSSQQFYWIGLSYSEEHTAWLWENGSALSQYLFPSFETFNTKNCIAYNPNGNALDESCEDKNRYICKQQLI
Chain of cynomolgus NKG2A/CD94 (soluble antigen of the equilibrium assay) (cynomolgus) (NKG2A, as listed by the source limits assumed, chain 1 of 2): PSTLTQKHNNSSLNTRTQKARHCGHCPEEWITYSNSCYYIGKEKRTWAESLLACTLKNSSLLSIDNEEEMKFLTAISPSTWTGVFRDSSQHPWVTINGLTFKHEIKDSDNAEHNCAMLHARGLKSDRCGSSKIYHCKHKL
Chain of cynomolgus NKG2A/CD94 (soluble antigen of the equilibrium assay) (cynomolgus) (CD94, as listed by the source limits assumed, chain 2 of 2): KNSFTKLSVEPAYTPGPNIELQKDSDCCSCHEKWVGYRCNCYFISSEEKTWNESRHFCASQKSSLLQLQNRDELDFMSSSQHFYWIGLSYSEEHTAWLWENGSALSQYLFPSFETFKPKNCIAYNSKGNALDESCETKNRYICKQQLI

B1: Benchmark anti-NKG2A antibody (IgG4) (antibody, INN chains, looked up, V domains shown)
VH: QVQLVQSGAEVKKPGASVKVSCKASGYTFTSYWMNWVRQAPGQGLEWMGRIDPYDSETHYAQKLQGRVTMTTDTSTSTAYMELRSLRSDDTAVYYCARGGYDFDVGTLYWFFDVWGQGTTVTVSS
VL: DIQMTQSPSSLSASVGDRVTITCRASENIYSYLAWYQQKPGKAPKLLIYNAKTLAEGVPSRFSGSGSGTDFTLTISSLQPEDFATYYCQHHYGTPRTFGGGTKVEIK
modifications: IgG4
For B1, in experiment [1], the Kd amounted to 0.06 nM, the koff came to 3e-05 s⁻¹ and the kon stood at 510000 M⁻¹ s⁻¹. In addition, the dissociation constant (Kd) in experiment [2] turned out to be 11 nM. Also, the % double-positive events (Q2: PD-L1+ LCL721.221-hPD-L1 cells coupled to NKG2A+ KHYG-1 cells), antibody at 2 nM; monospecific control, no bridging [cont.] in experiment [3] worked out at 0.59%. The molecule further yielded an EC50 (read off the curve) in experiment [4] of 0.04 nM. In experiment [5], this molecule showed an IC50 (read off the curve) of 0.3 nM.
